Our source for the Km, kcat and kcat/Km values is paper PMC9604523, “Discovery of New Phenylacetone Monooxygenase Variants for the Development of Substituted Indigoids through Biocatalysis” (International Journal of Molecular Sciences, 2022).

Substrate in data set [1]: NC(=O)C1=CN([C@@H]2O[C@H](COP(=O)(O)OP(=O)(O)OC[C@H]3O[C@@H](n4cnc5c(N)ncnc54)[C@H](OP(=O)(O)O)[C@@H]3O)[C@@H](O)[C@H]2O)C=CC1
As to the kind of experiment: purified protein. Type of data set: biochemical, Thermobifida fusca. The conditions noted are these: 50 mM phosphate pH 8.0, 1 µM enzyme, NADPH varied 5.0-500 µM, varied: cofactor.

Substrate in data set [2]: c1ccc2[nH]ccc2c1
The data set is described as follows: purified protein. The conditions noted are these: 50 mM phosphate pH 8.0, 1 µM enzyme, indole varied 0.05-1 mM, NADPH fixed at saturating concentration. In kind it is biochemical, Thermobifida fusca.

Setting [3] is: indole fixed at saturating concentration (wild type does not use indole; NADPH depletion control).
The mark [4] stands for this setting: indole fixed at saturating concentration.

B1: PAMO (phenylacetone monooxygenase; PAMOWT, PAMOHPCD, PAMOHPED) (Thermobifida fusca YX) (protein)
chain: MAGQTTVDSRRQPPEEVDVLVVGAGFSGLYALYRLRELGRSVHVIETAGDVGGVWYWNRYPGARCDIESIEYCYSFSEEVLQEWNWTERYASQPEILRYINFVADKFDLRSGITFHTTVTAAAFDEATNTWTVDTNHGDRIRARYLIMASGQLSVPQLPNFPGLKDFAGNLYHTGNWPHEPVDFSGQRVGVIGTGSSGIQVSPQIAKQAAELFVFQRTPHFAVPARNAPLDPEFLADLKKRYAEFREESRNTPGGTHRYQGPKSALEVSDEELVETLERYWQEGGPDILAAYRDILRDRDANERVAEFIRNKIRNTVRDPEVAERLVPKGYPFGTKRLILEIDYYEMFNRDNVHLVDTLSAPIETITPRGVRTSEREYELDSLVLATGFDALTGALFKIDIRGVGNVALKEKWAAGPRTYLGLSTAGFPNLFFIAGPGSPSALSNMLVSIEQHVEWVTDHIAYMFKNGLTRSEAVLEKEDEWVEHVNEIADETLYPMTASWYTGANVPGKPRVFMLYVGGFHRYRQICDEVAAKGYEGFVLT
As to B1, in data set [1] (setting [3]), the Km is 0.9 µM, the kcat is 4.8 s⁻¹ and the kcat/Km stood at 5.2e+06 M⁻¹ s⁻¹.

B2: PAMO (phenylacetone monooxygenase; PAMOWT, PAMOHPCD, PAMOHPED) (Thermobifida fusca YX; A442P/L443E/P440F/P94D/Q93N/S441H/S444D) (protein)
chain: MAGQTTVDSRRQPPEEVDVLVVGAGFSGLYALYRLRELGRSVHVIETAGDVGGVWYWNRYPGARCDIESIEYCYSFSEEVLQEWNWTERYASNDEILRYINFVADKFDLRSGITFHTTVTAAAFDEATNTWTVDTNHGDRIRARYLIMASGQLSVPQLPNFPGLKDFAGNLYHTGNWPHEPVDFSGQRVGVIGTGSSGIQVSPQIAKQAAELFVFQRTPHFAVPARNAPLDPEFLADLKKRYAEFREESRNTPGGTHRYQGPKSALEVSDEELVETLERYWQEGGPDILAAYRDILRDRDANERVAEFIRNKIRNTVRDPEVAERLVPKGYPFGTKRLILEIDYYEMFNRDNVHLVDTLSAPIETITPRGVRTSEREYELDSLVLATGFDALTGALFKIDIRGVGNVALKEKWAAGPRTYLGLSTAGFPNLFFIAGPGSFHPEDNMLVSIEQHVEWVTDHIAYMFKNGLTRSEAVLEKEDEWVEHVNEIADETLYPMTASWYTGANVPGKPRVFMLYVGGFHRYRQICDEVAAKGYEGFVLT
For B2, in data set [2], the Km is 109.0 µM, the kcat is 1.7 s⁻¹ and the kcat/Km turned out to be 16000 M⁻¹ s⁻¹. For the same protein, in data set [1] (setting [4]), the Km was determined as 4.4 µM, the kcat amounted to 1.9 s⁻¹ and the kcat/Km was determined as 430000 M⁻¹ s⁻¹.

B3: PAMO (phenylacetone monooxygenase; PAMOWT, PAMOHPCD, PAMOHPED) (Thermobifida fusca YX; A442P/L443C/P440F/P94D/Q93N/S441H/S444D) (protein)
chain: MAGQTTVDSRRQPPEEVDVLVVGAGFSGLYALYRLRELGRSVHVIETAGDVGGVWYWNRYPGARCDIESIEYCYSFSEEVLQEWNWTERYASNDEILRYINFVADKFDLRSGITFHTTVTAAAFDEATNTWTVDTNHGDRIRARYLIMASGQLSVPQLPNFPGLKDFAGNLYHTGNWPHEPVDFSGQRVGVIGTGSSGIQVSPQIAKQAAELFVFQRTPHFAVPARNAPLDPEFLADLKKRYAEFREESRNTPGGTHRYQGPKSALEVSDEELVETLERYWQEGGPDILAAYRDILRDRDANERVAEFIRNKIRNTVRDPEVAERLVPKGYPFGTKRLILEIDYYEMFNRDNVHLVDTLSAPIETITPRGVRTSEREYELDSLVLATGFDALTGALFKIDIRGVGNVALKEKWAAGPRTYLGLSTAGFPNLFFIAGPGSFHPCDNMLVSIEQHVEWVTDHIAYMFKNGLTRSEAVLEKEDEWVEHVNEIADETLYPMTASWYTGANVPGKPRVFMLYVGGFHRYRQICDEVAAKGYEGFVLT
With B3, in data set [2], the Km is given as 58.2 µM, the catalytic constant (kcat) came to 5.4 s⁻¹ and the kcat/Km was 93000 M⁻¹ s⁻¹. For the same protein, in data set [1] (setting [4]), the Km amounted to 7.6 µM, the kcat was determined as 6.8 s⁻¹ and the kcat/Km was 900000 M⁻¹ s⁻¹.
